Measured values from patent publication US11214624.

Biological target: microtubule (in vitro reconstituted, taxol-stabilised)

B1: HA-tagged wild-type p68 (HA-p68), immunopurified from SW480 cell lysates (protein)
chain: MSGYSSDRDRGRDRGFGAPRFGGSRAGPLSGKKFGNPGEKLVKKKWNLDELPKFEKNFYQEHPDLARRTAQEVETYRRSKEITVRGHNCPKPVLNFYEANFPANVMDVIARQNFTEPTAIQAQGWPVALSGLDMVGVAQTGSGKTLSYLLPAIVHINHQPFLERGDGPICLVLAPTRELAQQVQQVAAEYCRACRLKSTCIYGGAPKGPQIRDLERGVEICIATPGRLIDFLECGKTNLRRTTYLVLDEADRMLDMGFEPQIRKIVDQIRPDRQTLMWSATWPKEVRQLAEDFLKDYIHINIGALELSANHNILQIVDVCHDVEKDEKLIRLMEEIMSEKENKTIVFVETKRRCDELTRKMRRDGWPAMGIHGDKSQQERDWVLNEFKHGKAPILIATDVASRGLDVEDVKFVINYDYPNSSEDYIHRIGRTARSTKTGTAYTFFTPNNIKQVSDLISVLREANQAINPKLLQLVEDRGSGRSRGRGGMKDDRRDRYSAGKRGGFNTFRDRENYDRGYSSLLKRDFGAKTQNGVYSAANYTNGSFGSNFVSAGIQTSFRTGNPTGTYQNGYDSTQQYGSNVPNMHNGMNQQAYAYPATAAAPMIGYPMPTGYSQ
B1 was tested. Which % of gliding microtubules (n = 50), p68/Ca^2+-CaM, ATP did it give?
The % of gliding microtubules (n = 50), p68/Ca^2+-CaM, ATP was 74.2%.

What about the % of gliding microtubules (n = 50), p68/Ca^2+-CaM, no ATP of the same protein?
Its % of gliding microtubules (n = 50), p68/Ca^2+-CaM, no ATP is 5.79%.

What about the “ATPase activity (inorganic phosphate hydrolyzed from ATP)” value of the same protein?
The value was “the protein demonstrated an even stronger microtubule stimulated ATPase activity”.

What about the Maximum gliding speed, p68/Ca^2+-CaM, ATP of the same protein?
Its Maximum gliding speed, p68/Ca^2+-CaM, ATP is 0.52 µm/min.

And the Maximum gliding speed, p68/Ca^2+-CaM, no ATP?
Its Maximum gliding speed, p68/Ca^2+-CaM, no ATP is 0.01 µm/min.

And the Mean gliding speed, p68/Ca^2+-CaM, ATP?
The Mean gliding speed, p68/Ca^2+-CaM, ATP was 0.16 µm/min.

What about the Mean gliding speed, p68/Ca^2+-CaM, no ATP of the same protein?
The Mean gliding speed, p68/Ca^2+-CaM, no ATP was 0 µm/min.
